From patent publication CN115521379A (NANJING JISHENG AOMA BIOLOGICAL PHARMACEUTICAL CO LTD, dated 2022)
Numbering of substitutions follows the chain as printed. Names and notes keep the numbering of the source.

Assays:
PD-1蛋白 [1] = target: T1, PD-1蛋白 (human, UniProt Q15116 25-167, limits assumed); experiment: binding ELISA on coated PD-1 protein
T1 construct: Recombinant PD-1 protein used in ELISA, SPR and BLI; also called PD-1[B]; (biotinylated)

PD-1蛋白 [2] = target: T1, PD-1蛋白; experiment: SPR (Biacore T200), antibody captured by anti-human Fc, PD-1 injected
PD-1蛋白 [3] = target: T1, PD-1蛋白; experiment: competition ELISA: PD-L1 coated, biotinylated PD-1 0.5 ug/mL, antibody titrated

T1 sequence (Q15116 25-167 limits assumed): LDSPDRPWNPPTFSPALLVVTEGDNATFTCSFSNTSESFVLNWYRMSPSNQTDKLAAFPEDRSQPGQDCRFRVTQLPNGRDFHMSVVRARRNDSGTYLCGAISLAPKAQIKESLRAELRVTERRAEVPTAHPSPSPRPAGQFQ

B1: hu19D4-25 (antibody, V domains shown)
VH: EVQLQESGPGLVKPSETLSLTCTVSGFSLTSYAISWIRQPPGKGLEWIGVIWTGGGTNYNSALKSRVTISKDTSKNQVSLKLSSVTAADTAVYYCARDHYGTSPFVYWGQGTLVTVSS
VL: DIVLTQTPLSLSVTPGQPASISCRASESVDNYGISFMNWFLQKPGQPPQLLIYAASNQGSGVPDRFSGSGSGTDFTLKISRVEAEDVGVYFCQQSKEVPWTFGGGTKVEIK
notes: also called 人源化抗体hu19D4-25
PD-1蛋白 [1]
  EC50: 0.192 nM
PD-1蛋白 [2]
  Kd: 89.5 nM
  koff: 0.0105 s⁻¹
  kon: 118000 M⁻¹ s⁻¹

B2: WT-Agly-YTE (antibody, V domains shown)
VH: B1 VH
VL: B1 VL
notes: also called WT-Ag-YTE; WT-AGY-YTE
PD-1蛋白 [3]
  IC50: 0.411 µg/mL

B3: 1C2-3C11-W52F-Agly-YTE (antibody, V domains shown)
VH: B1 VH with W52F, D98E
VL: B1 VL with K96L
notes: 19D4-25-1C2-3C11 with W52F and an Fc with YTE (M252Y, S254T, T256E) and N297A; The label itself is not defined in the text
PD-1蛋白 [3]
  IC50: 0.495 µg/mL

B4: 1C2-Agly (antibody, V domains shown)
VH: B1 VH
VL: B1 VL with K96L
notes: also called 19D4-25-1C2与N297突变的Fc融合后得到的抗原结合蛋白
PD-1蛋白 [3]
  IC50: 0.375 µg/mL

B5: 3C11-Agly-YTE (antibody, V domains shown)
VH: B1 VH with D98E
VL: B1 VL
notes: also called 19D4-25-3C11与YTE突变、N297突变的Fc融合后得到的抗原结合蛋白
PD-1蛋白 [3]
  IC50: 0.543 µg/mL

B6: 1C2-3C11-Agly-YTE (antibody, V domains shown)
VH: B1 VH with D98E
VL: B1 VL with K96L
notes: also called 19D4-25-1C2-3C11与YTE突变、N297突变的Fc融合后得到的抗原结合蛋白
PD-1蛋白 [3]
  IC50: 0.369 µg/mL

B7: 1C2-Agly-YTE (antibody, V domains shown)
VH: B1 VH
VL: B1 VL with K96L
notes: also called 19D4-25-1C2与YTE突变、N297突变的Fc融合后得到的抗原结合蛋白
PD-1蛋白 [3]
  IC50: 0.492 µg/mL
